First the molecules themselves.
B1: 4-Met substituted E. coli Cir (colicin Ia receptor), the paper's wildtype (WT) Cir [E. coli] / Microcin V (MccV), mature, wildtype [modified: biotinylated (EZ-Link Sulfo-NHS-LC kit) for BLI and ELISA; not labelled for cryo-EM … (parent)
chain 1: VDDDGETMVVTASSVEQNLKDAPASISVITQEDLQRKPVQNLKDVLKEVPGVQLTNEGDNRKGVSIRGLDSSYTLILVDGKRVNSRNAVFRHNDFDLNWIPVDSIERIEVVRGPMSSLYGSDALGGVVNIITKKIGQKWSGTVTVDTTIQEHRDRGDTYNGQFFTSGPLIDGVLGMKAYGSLAKREKDDPQNSTTTDTGETPRIEGFSSRDGNVEFAWTPNQNHDFTAGYGFDRQDRDSDSLDKNRLERQNYSVSHNGRWDYGTSELKYYGEKVENKNPGNSSPITSESNTVDGKYTLPLTAINQFLTVGGEMRHDKMSDAVNLTGGTSSKTSASQYALFVEDEWRIFEPLALTTGVRMDDHETYGEHWSPRAYLVYNATDTVTVKGGWATAFKAPSLLQLSPDWTSNSCRGACKIVGSPDLKPETSESWELGLYYMGEEGWLEGVESSVTVFRNDVKDRISISRTSDVNAAPGYQNFVGFETGANGRRIPVFSYYNVNKARIQGVETELKIPFNDEWKLSINYTYNDGRDVSNGENKPLSDLPFHTANGTLDWKPLALEDWSMYMSGHYTGQKRADSATAKTPGGYTIWNTGAAWQVTKDVKLRAGVLNLGDKDLSRDDYSYNEDGRRYFMAVDYRF
chain 2: ASGRDIAMAIGTLSGQFVAGGIGAAAGGVAGGAIYDYASTHKPNPAMSPSGLGGTIKQKPEGIPSEAWNYAAGRLCNWSPNNLSDVCL

Variants of B1 are the subject of this experiment. Description: BLI. As to conditions: for Kd: 100 nM biotinylated MccV loaded onto streptavidin-coated sensors, probed with dilutions of Cir, PBS-T; for response: raw shift at end of association (600 s), 100 nM biotinylated MccV on sensor, not baseline-subtracted, read off a plot.
Where [1] appears, read: with 4-Met substituted E. coli Cir (colicin Ia receptor).

A word on the Kd: it is a measure of binding affinity in units of concentration.

Take chain 1 C410A: where the note is “with Microcin V (MccV)”, the dissociation constant (Kd) worked out at 552 nM. The response (with Microcin V (MccV), 5 µM Cir, PBST trace at about 1.5 nm) was found to be 4.5 nm.

Regarding chain 2 D85A, the equilibrium dissociation constant (Kd) under setting [1] was 888 nM. For the setting “with 4-Met substituted E. coli Cir (colicin Ia receptor), 5 µM WT Cir, PBST trace at about 1.65 nm”, the response came out at 3.3 nm. In the case of chain 2 D85R, the Kd under setting [1] came to 692 nM. Also, the response (with 4-Met substituted E. coli Cir (colicin Ia receptor), 5 µM WT Cir, PBST trace at about 1.85 nm) amounted to 3.2 nm. As for chain 1 R411E R465E, the Kd (with Microcin V (MccV)) was found to be 1580 nM.

Source of the values: publication PMC12511343, “Structural insights into Cir-mediated killing by the antimicrobial protein Microcin V” (Communications Biology, 2025).
